T1: human CD20 antigen on Daudi lymphoma cells (human) (UniProt P11836)
T1 sequence (looked up): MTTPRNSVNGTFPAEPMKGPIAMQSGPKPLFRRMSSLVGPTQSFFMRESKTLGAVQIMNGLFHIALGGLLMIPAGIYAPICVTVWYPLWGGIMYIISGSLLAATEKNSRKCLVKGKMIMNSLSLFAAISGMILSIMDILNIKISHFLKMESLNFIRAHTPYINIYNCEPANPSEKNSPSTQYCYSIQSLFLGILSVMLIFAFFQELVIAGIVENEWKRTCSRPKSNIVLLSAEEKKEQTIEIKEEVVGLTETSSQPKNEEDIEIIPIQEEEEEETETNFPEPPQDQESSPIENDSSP

B1: human CD20 antigen on Daudi lymphoma cells (other, UniProt P11836 1-297, looked up)
chain: T1 sequence (looked up)
notes: whole, on cells; also called Bp35
B2: Leu16VhY/VkZ (anti-CD20 PC1) (antibody, IgG1, V domains shown)
VH: EVQLQQSGAELKKPGASVKVSCKASGYTFTSYNMHWVKQTPGQGLEWIGAIYPGNGDTSYNQKFKGKTTLTADKSSSTAYMELSSLRSEDTAVYYCARSNYYGSSYWFFDVWGTGTTVTVSS
VL: DIVLTQSPAIITASPGEKVTMTCRASSSVNYMDWYQKKPGSSPKPWIYATSNLASGVPSRFSGSGSGTTYSMTISSLEAEDAATYYCQQWSFNPPTFGGGTKLEIK
notes: Chimeric IgG1/kappa antibody; also called DILeu16; DI-Leu16 antibody; not shown: human kappa light chain constant region

Experiment [1] has as its target high affinity IL-2R on a mouse cell line (CTLL-2) (mouse) (UniProt P01590). Briefly: cell-based or functional assay.
The target in experiment [2] is T1, human CD20 antigen on Daudi lymphoma cells (human). Description: flow cytometry on Daudi cells; antibody at 0.078 g/ml as printed.
The target is the same in experiment [3]. Briefly: flow cytometry on Daudi cells; antibody at 2.5 g/ml as printed.
Experiment [4] has the same target. Briefly: flow cytometry on Daudi cells; antibody at 10 g/ml as printed.
Experiment [5] shares this target. Description: flow cytometry on Daudi cells; antibody at 0.313 g/ml as printed. (In general: In flow cytometry, cells or beads pass a laser one at a time.)
The target is the same in experiment [6]. Description: flow cytometry on Daudi cells; antibody at 0.625 g/ml as printed.
The target is the same in experiment [7]. Briefly: flow cytometry on Daudi cells; antibody at 1.25 g/ml as printed.
For experiment [8] the target is unchanged. Briefly: flow cytometry on Daudi cells; antibody at 5 g/ml as printed.
For experiment [9] the target is unchanged. Description: flow cytometry on Daudi cells; antibody at 0.156 g/ml as printed.
For another experiment, the target named is IL-2 Rβ on TF-1β cells (UniProt P14784). Briefly: cell-based or functional assay.
In experiment [10] the target is T2, Leu16VhY/VkZ-IL2 (anti-CD20 PC2) (human, UniProt P60568 21-153).
T2 construct: Antibody-IL2 fusion (immunocytokine), glycosylated; also called AbVhY/VkZ-IL2; Ab(VhY/VkZ)-IL2; not shown: human kappa light chain constant region
Description: flow cytometry on Daudi cells. The procedure:
(§1) Approximately 10⁶ Daudi cells were used with various concentrations of antibody or antibody-IL2 fusion protein in a 100 μl volume, for each sample tested.

The target in experiment [11] is B1. Briefly: flow cytometry on Daudi cells, FIG. 6 Panel A. The procedure: FIG. 6 illustrates the anti-CD20 binding activity of CD20-binding polypeptide compositions and immunocytokines (ICs). Human Daudi lymphoma cells were incubated with varying concentrations of polypeptide compositions and ICs and relative binding to the cells was assessed by flow cytometry, as described in Example 2.
as §1

high affinity IL-2R on a mouse cell line (CTLL-2) (mouse), sequence (P01590 22-268, chain 1 of 3): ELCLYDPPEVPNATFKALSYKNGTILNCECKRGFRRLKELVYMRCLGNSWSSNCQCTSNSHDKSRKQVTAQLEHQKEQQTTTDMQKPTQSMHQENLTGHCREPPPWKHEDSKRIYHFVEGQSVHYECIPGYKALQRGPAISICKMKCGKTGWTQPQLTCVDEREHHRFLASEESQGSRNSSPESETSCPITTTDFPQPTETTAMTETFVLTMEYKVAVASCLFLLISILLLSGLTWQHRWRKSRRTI
high affinity IL-2R on a mouse cell line (CTLL-2) (mouse), sequence (P16297 27-539, chain 2 of 3, further chain): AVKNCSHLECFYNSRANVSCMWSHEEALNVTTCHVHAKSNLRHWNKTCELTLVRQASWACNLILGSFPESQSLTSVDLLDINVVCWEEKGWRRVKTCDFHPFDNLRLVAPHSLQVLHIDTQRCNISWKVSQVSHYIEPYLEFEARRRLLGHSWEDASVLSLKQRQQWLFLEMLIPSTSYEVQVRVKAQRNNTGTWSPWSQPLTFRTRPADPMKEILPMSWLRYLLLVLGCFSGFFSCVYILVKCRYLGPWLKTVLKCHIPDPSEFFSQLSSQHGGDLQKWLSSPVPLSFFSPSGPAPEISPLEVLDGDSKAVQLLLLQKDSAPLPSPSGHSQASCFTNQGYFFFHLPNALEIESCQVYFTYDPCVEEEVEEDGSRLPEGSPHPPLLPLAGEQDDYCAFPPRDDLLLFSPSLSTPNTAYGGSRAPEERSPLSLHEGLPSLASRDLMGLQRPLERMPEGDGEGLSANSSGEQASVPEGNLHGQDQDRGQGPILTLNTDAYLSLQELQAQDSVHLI
high affinity IL-2R on a mouse cell line (CTLL-2) (mouse), sequence (P34902 23-369, chain 3 of 3, further chain): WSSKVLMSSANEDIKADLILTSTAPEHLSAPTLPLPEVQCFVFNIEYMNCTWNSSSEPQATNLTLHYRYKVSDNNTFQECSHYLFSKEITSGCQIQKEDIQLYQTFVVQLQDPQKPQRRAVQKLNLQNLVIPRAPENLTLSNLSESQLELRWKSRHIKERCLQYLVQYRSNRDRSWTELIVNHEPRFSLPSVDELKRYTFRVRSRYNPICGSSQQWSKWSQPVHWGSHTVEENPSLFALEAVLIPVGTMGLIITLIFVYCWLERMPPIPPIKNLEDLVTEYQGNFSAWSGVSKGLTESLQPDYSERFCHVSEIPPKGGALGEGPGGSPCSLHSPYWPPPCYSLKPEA
T2 sequence (P60568 21-153 limits assumed): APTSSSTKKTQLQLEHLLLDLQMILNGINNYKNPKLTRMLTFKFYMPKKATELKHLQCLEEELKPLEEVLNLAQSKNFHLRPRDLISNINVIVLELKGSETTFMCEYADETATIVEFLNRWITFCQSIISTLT
IL-2 Rβ on TF-1β cells, sequence (P14784 27-551): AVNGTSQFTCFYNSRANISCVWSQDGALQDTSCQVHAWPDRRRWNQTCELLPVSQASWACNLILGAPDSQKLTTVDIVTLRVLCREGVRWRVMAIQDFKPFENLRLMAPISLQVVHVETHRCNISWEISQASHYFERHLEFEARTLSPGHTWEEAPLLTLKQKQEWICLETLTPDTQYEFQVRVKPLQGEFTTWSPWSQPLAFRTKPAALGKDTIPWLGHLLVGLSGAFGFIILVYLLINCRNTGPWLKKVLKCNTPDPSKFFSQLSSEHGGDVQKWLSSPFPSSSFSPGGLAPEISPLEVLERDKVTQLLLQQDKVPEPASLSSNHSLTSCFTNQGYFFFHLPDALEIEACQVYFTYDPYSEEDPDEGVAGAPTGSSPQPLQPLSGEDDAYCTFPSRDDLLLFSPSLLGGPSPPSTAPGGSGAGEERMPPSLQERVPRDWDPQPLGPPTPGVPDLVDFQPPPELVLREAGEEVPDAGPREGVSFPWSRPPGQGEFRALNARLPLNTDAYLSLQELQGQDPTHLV

As for “human rIL-2 (from UniProt P60568 21-153) (ligand)”, in experiment [1], the CTLL-2 ED50 worked out at 0.65 ng/mL.

On to 2B8-IL2 fusion protein, for which the mean fluorescence intensity in experiment [2] is 52.1; in experiment [3] it was 513; in experiment [4], 857; in experiment [5], 147; in experiment [6], 229; in experiment [7], 369. Moreover, the results for the mean fluorescence intensity in experiment [8] and in experiment [9] were 720 and 85.3, respectively.

Take “KS-IL2, anti-EpCAM antibody fused to human IL-2 at the C-terminus of the antibody heavy chains (from UniProt P60568 21-153)”: the TF-1β ED50 in the experiment with IL-2 Rβ on TF-1β cells amounted to 0.51 ng/mL. This molecule also showed a CTLL-2 ED50 in experiment [1] of 1.71 ng/mL.

With B1, the binding result in [10] is recorded as “binds”.

As for B2, the binding result in experiment [11] was “binds”.
